The source of these data is the supplement of paper PMC12338614.

± gives the uncertainty stated by the source.

Sequences and labels used below:
B1: library; numbered along this chain (parent)
chain: MEVVDPQQLGMFTEGELMSVGMDTFIHRIDSTEVIYQPRRKRAKLIGKYLMGDLLGEGSYGKVKEVLDSETLCRRAVKILKKKKLRRIPNGEANVKKEIQLLRRLRHKNVIQLVDVLYNEEKQKMYMVMEYCVCGMQEMLDSVPEKRFPVCQAHGYFCQLIDGLEYLHSQGIVHKDIKPGNLLLTTGGTLKISDLGVAEALHPFAADDTCRTSQGSPAFQPPEIANGLDTFSGFKVDIWSAGVTLYNITTGLYPFEGDNIYKLFENIGKGSYAIPGDCGPPLSDLLKGMLEYEPAKRFSIRQIRQHSWFRKKHPPAEAPVPIPPSPDTKDRWRSMTVVPYLEDLHGADEDEDLFDIEDDIIYTQDFTVPGQVPEEEASHNGQRRGLPKAVCMNGTEAAQLSTKSRAEGRAPNPARKACSASSKIRRLSACKQQ

The variants in the series derive from B1. In words: STK11 functional score (HeLa growth suppression), rescaled enrichment; synonymous median = 1, nonsense median = 0 (normalised score). The following applies: with HeLa; variant type: missense. In short, it runs like this:
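The values are functional scores: wild-type-corrected log ratios of post- versus pre-selection abundance, rescaled to synonymous and nonsense medians, merged over codons and replicate transfections, and carrying bootstrapped error. They derive from codon-randomised (POPCode), codon-optimised STK11 libraries that Bxb1 integrated at an AAVS1 landing pad in HeLa, with three transfections for each of three regions. Sequencing of tiled gDNA amplicons ran on NextSeq, at ~2 million reads per tile.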
In the case of MEVVDPQQLGMFTEGELMSVGMDTFIHRIDSTEVIYQPRRKRAKLIGKYLMGDLLGEGSYGKVKEVLDSETLCRRAVKILKKKKLRRIPNGEANVKKEIQLLRRLRHKNVIQLVDVLYNEEKQKMYMVMEYCVCGMQEMLDSVPEKRFPVCQAHGYFCQLIDGLEYLHSQGIVHKDIKPGNLLLTTGGTLKISDLGVAEALHPFAADDTCRTSQGSPAFQPPEIATGLDTFSGFKVDIWSAGVTLYNITTGLYPFEGDNIYKLFENIGKGSYAIPGDCGPPLSDLLKGMLEYEPAKRFSIRQIRQHSWFRKKHPPAEAPVPIPPSPDTKDRWRSMTVVPYLEDLHGADEDEDLFDIEDDIIYTQDFTVPGQVPEEEASHNGQRRGLPKAVCMNGTEAAQLSTKSRAEGRAPNPARKACSASSKIRRLSACKQQ [N226T], the STK11 functional score worked out at 1.26 ± 0.12.
The figure for MEVVDPQQLGMFTEGELMSVGMDTFIHRIDSTEVIYQPRRKRAKLIGKYLMGDLLGEGSYGKVKEVLDSETLCRRAVKILKKKKLRRIPNGEANVKKEIQLLRRLRHKNVIQLVDVLYNEEKQKMYMVMEYCVCGMQEMLDSVPEKRFPVCQAHGYFCQLIDGLEYLHSQGIVHKDIKPGNLLLTTGGTLKISDLGVAEALHPFAADDTCRTSQGSPAFQPPEIAPGLDTFSGFKVDIWSAGVTLYNITTGLYPFEGDNIYKLFENIGKGSYAIPGDCGPPLSDLLKGMLEYEPAKRFSIRQIRQHSWFRKKHPPAEAPVPIPPSPDTKDRWRSMTVVPYLEDLHGADEDEDLFDIEDDIIYTQDFTVPGQVPEEEASHNGQRRGLPKAVCMNGTEAAQLSTKSRAEGRAPNPARKACSASSKIRRLSACKQQ [N226P] is 0.609 ± 0.13.
The figure for MEVVDPQQLGMFTEGELMSVGMDTFIHRIDSTEVIYQPRRKRAKLIGKYLMGDLLGEGSYGKVKEVLDSETLCRRAVKILKKKKLRRIPNGEANVKKEIQLLRRLRHKNVIQLVDVLYNEEKQKMYMVMEYCVCGMQEMLDSVPEKRFPVCQAHGYFCQLIDGLEYLHSQGIVHKDIKPGNLLLTTGGTLKISDLGVAEALHPFAADDTCRTSQGSPAFQPPEIAQGLDTFSGFKVDIWSAGVTLYNITTGLYPFEGDNIYKLFENIGKGSYAIPGDCGPPLSDLLKGMLEYEPAKRFSIRQIRQHSWFRKKHPPAEAPVPIPPSPDTKDRWRSMTVVPYLEDLHGADEDEDLFDIEDDIIYTQDFTVPGQVPEEEASHNGQRRGLPKAVCMNGTEAAQLSTKSRAEGRAPNPARKACSASSKIRRLSACKQQ [N226Q] is 1.45 ± 0.27.
The figure for MEVVDPQQLGMFTEGELMSVGMDTFIHRIDSTEVIYQPRRKRAKLIGKYLMGDLLGEGSYGKVKEVLDSETLCRRAVKILKKKKLRRIPNGEANVKKEIQLLRRLRHKNVIQLVDVLYNEEKQKMYMVMEYCVCGMQEMLDSVPEKRFPVCQAHGYFCQLIDGLEYLHSQGIVHKDIKPGNLLLTTGGTLKISDLGVAEALHPFAADDTCRTSQGSPAFQPPEIASGLDTFSGFKVDIWSAGVTLYNITTGLYPFEGDNIYKLFENIGKGSYAIPGDCGPPLSDLLKGMLEYEPAKRFSIRQIRQHSWFRKKHPPAEAPVPIPPSPDTKDRWRSMTVVPYLEDLHGADEDEDLFDIEDDIIYTQDFTVPGQVPEEEASHNGQRRGLPKAVCMNGTEAAQLSTKSRAEGRAPNPARKACSASSKIRRLSACKQQ [N226S] is 0.759 ± 0.096.
Take MEVVDPQQLGMFTEGELMSVGMDTFIHRIDSTEVIYQPRRKRAKLIGKYLMGDLLGEGSYGKVKEVLDSETLCRRAVKILKKKKLRRIPNGEANVKKEIQLLRRLRHKNVIQLVDVLYNEEKQKMYMVMEYCVCGMQEMLDSVPEKRFPVCQAHGYFCQLIDGLEYLHSQGIVHKDIKPGNLLLTTGGTLKISDLGVAEALHPFAADDTCRTSQGSPAFQPPEIAVGLDTFSGFKVDIWSAGVTLYNITTGLYPFEGDNIYKLFENIGKGSYAIPGDCGPPLSDLLKGMLEYEPAKRFSIRQIRQHSWFRKKHPPAEAPVPIPPSPDTKDRWRSMTVVPYLEDLHGADEDEDLFDIEDDIIYTQDFTVPGQVPEEEASHNGQRRGLPKAVCMNGTEAAQLSTKSRAEGRAPNPARKACSASSKIRRLSACKQQ [N226V]: the STK11 functional score is 0.778 ± 0.56.
MEVVDPQQLGMFTEGELMSVGMDTFIHRIDSTEVIYQPRRKRAKLIGKYLMGDLLGEGSYGKVKEVLDSETLCRRAVKILKKKKLRRIPNGEANVKKEIQLLRRLRHKNVIQLVDVLYNEEKQKMYMVMEYCVCGMQEMLDSVPEKRFPVCQAHGYFCQLIDGLEYLHSQGIVHKDIKPGNLLLTTGGTLKISDLGVAEALHPFAADDTCRTSQGSPAFQPPEIAWGLDTFSGFKVDIWSAGVTLYNITTGLYPFEGDNIYKLFENIGKGSYAIPGDCGPPLSDLLKGMLEYEPAKRFSIRQIRQHSWFRKKHPPAEAPVPIPPSPDTKDRWRSMTVVPYLEDLHGADEDEDLFDIEDDIIYTQDFTVPGQVPEEEASHNGQRRGLPKAVCMNGTEAAQLSTKSRAEGRAPNPARKACSASSKIRRLSACKQQ [N226W]: the STK11 functional score came to 1.65 ± 0.24.
The figure for MEVVDPQQLGMFTEGELMSVGMDTFIHRIDSTEVIYQPRRKRAKLIGKYLMGDLLGEGSYGKVKEVLDSETLCRRAVKILKKKKLRRIPNGEANVKKEIQLLRRLRHKNVIQLVDVLYNEEKQKMYMVMEYCVCGMQEMLDSVPEKRFPVCQAHGYFCQLIDGLEYLHSQGIVHKDIKPGNLLLTTGGTLKISDLGVAEALHPFAADDTCRTSQGSPAFQPPEIARGLDTFSGFKVDIWSAGVTLYNITTGLYPFEGDNIYKLFENIGKGSYAIPGDCGPPLSDLLKGMLEYEPAKRFSIRQIRQHSWFRKKHPPAEAPVPIPPSPDTKDRWRSMTVVPYLEDLHGADEDEDLFDIEDDIIYTQDFTVPGQVPEEEASHNGQRRGLPKAVCMNGTEAAQLSTKSRAEGRAPNPARKACSASSKIRRLSACKQQ [N226R] is 1.51 ± 0.2.
